# According to paper PMC5006282:
# Experiments:
# Assay in all cases: pull-down MS
# Conditions in all cases: 5' biotin on sense strand; DNA immobilised on streptavidin beads in 20 mM Tris-HCl pH 8.0, 200 mM NaCl, 0.5 mM EDTA, 0.03% NP40; protein binding buffer and temperature not in the …
# [1] = target: Aiolos (Homo sapiens (Raji)) (UniProt Q9UKT9)
# [2] = target: HCF-1 (Homo sapiens (Raji, Molt4)) (UniProt P51610)
# [3] = target: Helios (Homo sapiens (Raji)) (UniProt Q9UKS7)
# [4] = target: Ikaros (Homo sapiens (Raji, Molt4 nuclear extract)) (UniProt Q13422)
# Chain of UniProt Q13422 (Q13422 whole entry): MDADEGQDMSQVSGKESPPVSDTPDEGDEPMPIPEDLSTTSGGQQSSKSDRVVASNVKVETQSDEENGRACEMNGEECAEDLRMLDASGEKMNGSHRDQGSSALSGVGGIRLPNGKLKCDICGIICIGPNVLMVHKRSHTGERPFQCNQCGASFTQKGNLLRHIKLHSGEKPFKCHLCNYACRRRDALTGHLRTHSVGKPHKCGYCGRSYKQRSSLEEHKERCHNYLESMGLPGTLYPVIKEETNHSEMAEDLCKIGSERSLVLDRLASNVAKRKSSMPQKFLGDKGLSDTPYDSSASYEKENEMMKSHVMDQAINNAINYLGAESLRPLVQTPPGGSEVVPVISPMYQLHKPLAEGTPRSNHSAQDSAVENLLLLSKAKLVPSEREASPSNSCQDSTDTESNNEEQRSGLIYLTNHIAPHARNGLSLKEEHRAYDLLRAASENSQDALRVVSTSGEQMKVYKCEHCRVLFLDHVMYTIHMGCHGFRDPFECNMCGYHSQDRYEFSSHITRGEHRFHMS
# [5] = target: NFKB2 (NF-kappa B p100/p52) (Homo sapiens (Raji)) (UniProt Q00653)
# Chain of UniProt Q00653 (Q00653 whole entry): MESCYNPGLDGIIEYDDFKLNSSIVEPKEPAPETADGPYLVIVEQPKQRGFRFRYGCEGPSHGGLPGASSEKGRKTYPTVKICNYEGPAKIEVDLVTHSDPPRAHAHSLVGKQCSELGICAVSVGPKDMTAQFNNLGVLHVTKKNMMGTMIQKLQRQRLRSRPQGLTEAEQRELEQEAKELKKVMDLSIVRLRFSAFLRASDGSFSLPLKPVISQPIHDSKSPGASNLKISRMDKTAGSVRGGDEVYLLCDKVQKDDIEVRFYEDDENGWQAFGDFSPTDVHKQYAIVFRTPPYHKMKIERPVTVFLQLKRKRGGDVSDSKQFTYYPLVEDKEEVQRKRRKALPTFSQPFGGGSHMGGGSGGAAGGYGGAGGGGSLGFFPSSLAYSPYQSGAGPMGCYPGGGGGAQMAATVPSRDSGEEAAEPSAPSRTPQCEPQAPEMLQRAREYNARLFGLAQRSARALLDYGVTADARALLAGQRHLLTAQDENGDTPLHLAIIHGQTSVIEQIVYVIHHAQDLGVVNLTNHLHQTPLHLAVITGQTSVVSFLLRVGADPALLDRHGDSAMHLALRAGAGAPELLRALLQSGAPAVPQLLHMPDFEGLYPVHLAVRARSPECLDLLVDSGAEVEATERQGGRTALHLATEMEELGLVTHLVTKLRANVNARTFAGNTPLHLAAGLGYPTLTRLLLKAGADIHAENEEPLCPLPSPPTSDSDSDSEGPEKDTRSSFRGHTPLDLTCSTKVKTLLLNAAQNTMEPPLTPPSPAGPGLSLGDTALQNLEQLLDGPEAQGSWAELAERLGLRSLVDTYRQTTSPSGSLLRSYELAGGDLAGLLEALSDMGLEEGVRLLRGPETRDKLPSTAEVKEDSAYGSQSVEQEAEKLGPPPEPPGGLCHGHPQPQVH
# Chain of UniProt P51610 (P51610 whole entry): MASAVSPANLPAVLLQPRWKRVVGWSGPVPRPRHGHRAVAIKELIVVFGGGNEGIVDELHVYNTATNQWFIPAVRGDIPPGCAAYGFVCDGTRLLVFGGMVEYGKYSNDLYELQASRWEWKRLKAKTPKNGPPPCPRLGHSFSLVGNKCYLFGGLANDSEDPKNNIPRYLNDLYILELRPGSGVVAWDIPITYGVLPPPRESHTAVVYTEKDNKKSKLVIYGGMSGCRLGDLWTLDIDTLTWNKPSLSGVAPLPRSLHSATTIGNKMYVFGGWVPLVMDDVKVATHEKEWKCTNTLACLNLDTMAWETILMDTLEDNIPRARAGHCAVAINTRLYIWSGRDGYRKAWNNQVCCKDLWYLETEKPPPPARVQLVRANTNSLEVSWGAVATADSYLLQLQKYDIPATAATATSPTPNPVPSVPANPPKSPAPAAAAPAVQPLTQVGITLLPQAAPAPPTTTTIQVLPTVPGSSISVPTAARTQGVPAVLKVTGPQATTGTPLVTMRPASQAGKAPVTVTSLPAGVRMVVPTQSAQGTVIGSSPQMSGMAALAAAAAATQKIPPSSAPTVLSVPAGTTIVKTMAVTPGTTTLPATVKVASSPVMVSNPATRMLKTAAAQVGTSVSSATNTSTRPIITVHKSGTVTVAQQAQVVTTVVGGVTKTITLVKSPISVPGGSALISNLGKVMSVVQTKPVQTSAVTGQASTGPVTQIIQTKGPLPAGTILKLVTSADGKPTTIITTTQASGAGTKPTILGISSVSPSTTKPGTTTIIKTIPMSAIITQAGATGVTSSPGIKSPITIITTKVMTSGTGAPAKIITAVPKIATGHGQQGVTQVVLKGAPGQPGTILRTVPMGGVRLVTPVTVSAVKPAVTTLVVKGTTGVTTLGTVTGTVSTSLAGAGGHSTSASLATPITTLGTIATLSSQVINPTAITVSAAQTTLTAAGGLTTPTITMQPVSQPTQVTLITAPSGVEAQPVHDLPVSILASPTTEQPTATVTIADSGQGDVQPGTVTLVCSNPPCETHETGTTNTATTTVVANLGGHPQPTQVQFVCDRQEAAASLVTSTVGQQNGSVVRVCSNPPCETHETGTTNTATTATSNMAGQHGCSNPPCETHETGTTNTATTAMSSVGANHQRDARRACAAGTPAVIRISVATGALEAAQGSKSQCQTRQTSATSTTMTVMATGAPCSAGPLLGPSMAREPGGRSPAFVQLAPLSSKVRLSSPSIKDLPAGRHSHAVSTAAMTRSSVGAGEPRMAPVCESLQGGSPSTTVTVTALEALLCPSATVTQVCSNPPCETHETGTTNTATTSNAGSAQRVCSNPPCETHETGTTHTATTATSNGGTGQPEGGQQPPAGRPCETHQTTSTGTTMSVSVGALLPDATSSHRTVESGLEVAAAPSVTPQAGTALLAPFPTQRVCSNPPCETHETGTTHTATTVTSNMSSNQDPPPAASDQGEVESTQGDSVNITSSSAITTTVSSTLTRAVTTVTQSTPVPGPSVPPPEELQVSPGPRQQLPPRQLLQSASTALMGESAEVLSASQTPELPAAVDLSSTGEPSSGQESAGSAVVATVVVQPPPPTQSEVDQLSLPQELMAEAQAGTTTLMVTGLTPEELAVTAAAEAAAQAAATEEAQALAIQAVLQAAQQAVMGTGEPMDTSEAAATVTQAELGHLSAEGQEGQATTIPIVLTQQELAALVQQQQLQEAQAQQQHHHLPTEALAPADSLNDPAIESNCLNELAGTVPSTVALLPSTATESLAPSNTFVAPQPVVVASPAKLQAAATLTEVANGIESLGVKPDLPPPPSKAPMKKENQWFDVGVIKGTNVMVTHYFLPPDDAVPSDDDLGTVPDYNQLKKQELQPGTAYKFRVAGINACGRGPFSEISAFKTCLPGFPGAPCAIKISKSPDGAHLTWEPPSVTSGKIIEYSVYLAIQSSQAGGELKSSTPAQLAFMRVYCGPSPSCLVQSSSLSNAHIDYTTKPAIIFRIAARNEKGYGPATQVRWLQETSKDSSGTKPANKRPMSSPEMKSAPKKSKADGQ
# Chain of UniProt Q9UKT9 (Q9UKT9 whole entry): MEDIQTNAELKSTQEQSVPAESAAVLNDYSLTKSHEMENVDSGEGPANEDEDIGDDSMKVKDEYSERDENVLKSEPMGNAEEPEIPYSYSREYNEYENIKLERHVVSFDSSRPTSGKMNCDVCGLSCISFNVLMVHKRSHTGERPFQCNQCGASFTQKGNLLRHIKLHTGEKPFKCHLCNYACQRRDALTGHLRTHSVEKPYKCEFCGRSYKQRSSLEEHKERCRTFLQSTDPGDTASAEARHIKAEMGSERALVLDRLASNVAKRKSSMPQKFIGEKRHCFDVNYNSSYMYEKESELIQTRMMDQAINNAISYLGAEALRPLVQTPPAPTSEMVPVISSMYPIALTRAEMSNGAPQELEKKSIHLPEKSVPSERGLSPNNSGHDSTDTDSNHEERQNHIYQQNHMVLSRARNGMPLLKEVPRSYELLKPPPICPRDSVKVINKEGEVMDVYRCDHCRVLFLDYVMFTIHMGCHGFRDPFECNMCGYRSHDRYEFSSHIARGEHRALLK
# Chain of UniProt Q9UKS7 (Q9UKS7 whole entry): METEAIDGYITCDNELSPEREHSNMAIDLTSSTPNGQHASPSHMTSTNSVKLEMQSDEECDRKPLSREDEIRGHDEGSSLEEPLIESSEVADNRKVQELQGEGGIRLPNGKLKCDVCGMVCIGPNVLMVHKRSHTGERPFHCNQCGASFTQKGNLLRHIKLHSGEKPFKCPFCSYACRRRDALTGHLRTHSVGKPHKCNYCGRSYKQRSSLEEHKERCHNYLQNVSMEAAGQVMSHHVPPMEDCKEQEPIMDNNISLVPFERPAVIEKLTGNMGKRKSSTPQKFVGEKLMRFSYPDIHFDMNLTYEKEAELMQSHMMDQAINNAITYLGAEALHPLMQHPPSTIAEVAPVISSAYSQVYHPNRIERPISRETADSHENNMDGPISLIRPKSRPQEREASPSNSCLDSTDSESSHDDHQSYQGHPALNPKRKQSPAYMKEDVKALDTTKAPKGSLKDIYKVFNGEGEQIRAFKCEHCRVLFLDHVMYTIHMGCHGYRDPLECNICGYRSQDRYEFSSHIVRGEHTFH
sequence,measurement,setting,value
CAAAACTGCAGGCAACTAGAACTACATTTCCCGGCGTGATTTGCTGCGGAACGAACTACATCTCCCGGCAGGCTGCG (double strand) [Tandem M4 WT],binding signal (SILAC ratio WT/MT),[1],> 100
same,binding signal (SILAC ratio WT/MT),[2],19
same,binding signal (SILAC ratio WT/MT),[3],> 100
same,binding signal (SILAC ratio WT/MT),[4],> 100
same,binding signal (SILAC ratio WT/MT),[5],31.8
